Read-outs that look alike come from different tables or passages of the source. Where no end group is shown, it is not given here.
Legend:
BTMD-SKI-1 = target: T1, BTMD-SKI-1 (Homo sapiens, UniProt Q14703); assay: pH optimum and calcium dependence of peptide cleavage by BTMD-SKI-1; format: biochemical
T1 sequence (Q14703 187-997 limits assumed): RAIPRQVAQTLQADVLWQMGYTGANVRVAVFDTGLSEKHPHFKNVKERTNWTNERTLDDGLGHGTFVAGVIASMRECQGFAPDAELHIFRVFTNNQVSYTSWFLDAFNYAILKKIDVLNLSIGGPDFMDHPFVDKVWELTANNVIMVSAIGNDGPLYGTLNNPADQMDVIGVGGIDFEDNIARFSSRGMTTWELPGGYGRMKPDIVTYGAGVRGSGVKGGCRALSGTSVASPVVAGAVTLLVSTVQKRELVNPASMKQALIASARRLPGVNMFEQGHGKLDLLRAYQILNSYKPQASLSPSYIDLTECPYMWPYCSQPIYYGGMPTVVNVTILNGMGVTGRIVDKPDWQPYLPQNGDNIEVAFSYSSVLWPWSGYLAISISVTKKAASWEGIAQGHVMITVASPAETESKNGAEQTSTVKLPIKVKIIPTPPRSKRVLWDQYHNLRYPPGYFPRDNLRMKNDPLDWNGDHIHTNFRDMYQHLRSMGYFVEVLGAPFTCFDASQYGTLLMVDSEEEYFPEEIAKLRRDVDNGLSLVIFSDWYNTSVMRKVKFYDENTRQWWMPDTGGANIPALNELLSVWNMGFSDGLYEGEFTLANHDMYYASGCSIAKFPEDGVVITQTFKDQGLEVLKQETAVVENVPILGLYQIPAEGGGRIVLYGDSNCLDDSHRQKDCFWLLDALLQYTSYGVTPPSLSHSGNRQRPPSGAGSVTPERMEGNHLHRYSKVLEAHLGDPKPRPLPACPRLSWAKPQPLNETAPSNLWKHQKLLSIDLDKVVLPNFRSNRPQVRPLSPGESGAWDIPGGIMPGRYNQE
T1 sequence (Q14703 17-137 partner limits assumed): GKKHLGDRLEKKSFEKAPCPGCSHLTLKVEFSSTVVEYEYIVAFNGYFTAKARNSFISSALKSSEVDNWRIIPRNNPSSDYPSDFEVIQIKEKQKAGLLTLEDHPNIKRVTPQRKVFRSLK
Description: pH Optimum, Calcium-Dependence and Inhibitor Profile—The protocols used were essentially the same as reported previously (13). Stocks of the buffer described above were adjusted to pH 5.0–8.5 at 0.5 unit increments by addition of either acetic acid or sodium hydroxide. In order to investigate the calcium requirement of SKI-1, increasing concentrations of Ca^2+-acetate were used ranging from 0 to 10 mM.

[1] = system: endogenous furin-like enzyme(s); assay: Ex vivo proBDNF processing in COS-7 cells: 14 kDa BDNF; format: cell-based
SKI-1 = target: T2, SKI-1 (Homo sapiens, UniProt Q14703); format: cell-based; parameters: The VV recombinant of full-length hSKI-1 has been described (10); expressed in transfected cells; host or cells: COS-7 cells co-infected with vv:BDNF and vv:SKI-1 (with vv:WT, vv:PIT or vv:PDX)
T2 sequence (Q14703 187-1052): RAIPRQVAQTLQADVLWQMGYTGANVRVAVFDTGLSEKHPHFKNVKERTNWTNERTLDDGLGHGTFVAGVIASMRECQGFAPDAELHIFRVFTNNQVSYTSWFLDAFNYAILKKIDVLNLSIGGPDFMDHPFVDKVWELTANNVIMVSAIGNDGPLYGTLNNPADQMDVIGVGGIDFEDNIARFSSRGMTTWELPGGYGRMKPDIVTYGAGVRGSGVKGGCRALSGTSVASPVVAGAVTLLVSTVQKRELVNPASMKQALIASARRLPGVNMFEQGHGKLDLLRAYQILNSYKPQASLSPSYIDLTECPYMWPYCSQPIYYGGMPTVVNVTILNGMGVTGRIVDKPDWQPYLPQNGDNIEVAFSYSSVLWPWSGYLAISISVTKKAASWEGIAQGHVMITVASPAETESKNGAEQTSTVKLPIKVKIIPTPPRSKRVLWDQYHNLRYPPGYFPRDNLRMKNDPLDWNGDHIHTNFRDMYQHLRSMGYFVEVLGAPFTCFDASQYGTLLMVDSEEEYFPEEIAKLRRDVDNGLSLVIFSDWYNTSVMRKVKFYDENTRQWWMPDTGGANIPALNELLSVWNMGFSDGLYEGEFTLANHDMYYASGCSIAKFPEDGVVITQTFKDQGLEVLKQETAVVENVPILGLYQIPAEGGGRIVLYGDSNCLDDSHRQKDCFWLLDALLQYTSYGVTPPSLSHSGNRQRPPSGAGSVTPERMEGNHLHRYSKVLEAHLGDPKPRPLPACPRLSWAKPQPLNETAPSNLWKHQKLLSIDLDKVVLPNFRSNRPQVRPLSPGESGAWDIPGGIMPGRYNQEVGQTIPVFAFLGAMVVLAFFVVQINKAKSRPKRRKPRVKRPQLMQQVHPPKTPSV

[2] = target: T3, peptide VI, hSKI-1 (156-172)
T3 chain: WQSSRPLRRASLSLGSG

[3] = target: T4, peptide IV, hSKI-1 (174-188+LE)
T4 chain: WHATGRHSSRRLLRALE

[4] = target: T5, peptide VIII, hSKI-1 (128-136)
T5 chain: PQRKVFRSL

[5] = target: T6, peptide IX, hSKI-1 (128-142)
T6 chain: PQRKVFRSLKYAESD

[6] = target: T7, peptide VII, hSKI-1 (187-201)
T7 chain: RAIPRQVAQTLQADV

[7] = target: T8, peptide V, hSKI-1 (182-188+LE)
T8 chain: SRRLLRALE

[8] = target: T9, peptide II, hSREBP-2(504-530)
T9 chain: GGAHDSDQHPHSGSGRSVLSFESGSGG

[9] = target: soya bean trypsin inhibitor
[10] = target: T10, peptide III, hSKI-1(174-191)
T10 chain: WHATGRHSSRRLLRAIPR

[11] = target: T11, peptide I, hproBDNF(50-63)
T11 chain: KAGSRGLTSLADTF

[12] = COS-7 cells co-expressing proBDNF and SKI-1

Molecule: KAGSRGLTSLADTF [I]
- activity retained (BTMD-SKI-1; at pH 5.0): about 30%
- activity retained (BTMD-SKI-1; at pH 8.5): ~55%

Molecule: CNc1ccc2oc(C[C@H]3O[C@@]4(CC[C@H]3C)O[C@H]([C@H](C)C(=O)c3ccc[nH]3)[C@H](C)C[C@H]4C)nc2c1C(=O)O [Peptide A23187]
- production of the 14 kDa BDNF [1, 12]: abolished
- level of the 28 kDa BDNF product (SKI-1; [12]): abolished

Molecule: α1-antitrypsin Portland [α1-PDX]
- production of the 14 kDa BDNF [1]: selectively blocks the production of the 14 kDa BDNF
- level of the 28 kDa BDNF product (SKI-1): neither α1-PIT nor α1-PDX affect the level of the 28 kDa product

B1: BTMD-SKI-1 (protein)
chain: RAIPRQVAQTLQADVLWQMGYTGANVRVAVFDTGLSEKHPHFKNVKERTNWTNERTLDDGLGHGTFVAGVIASMRECQGFAPDAELHIFRVFTNNQVSYTSWFLDAFNYAILKKIDVLNLSIGGPDFMDHPFVDKVWELTANNVIMVSAIGNDGPLYGTLNNPADQMDVIGVGGIDFEDNIARFSSRGMTTWELPGGYGRMKPDIVTYGAGVRGSGVKGGCRALSGTSVASPVVAGAVTLLVSTVQKRELVNPASMKQALIASARRLPGVNMFEQGHGKLDLLRAYQILNSYKPQASLSPSYIDLTECPYMWPYCSQPIYYGGMPTVVNVTILNGMGVTGRIVDKPDWQPYLPQNGDNIEVAFSYSSVLWPWSGYLAISISVTKKAASWEGIAQGHVMITVASPAETESKNGAEQTSTVKLPIKVKIIPTPPRSKRVLWDQYHNLRYPPGYFPRDNLRMKNDPLDWNGDHIHTNFRDMYQHLRSMGYFVEVLGAPFTCFDASQYGTLLMVDSEEEYFPEEIAKLRRDVDNGLSLVIFSDWYNTSVMRKVKFYDENTRQWWMPDTGGANIPALNELLSVWNMGFSDGLYEGEFTLANHDMYYASGCSIAKFPEDGVVITQTFKDQGLEVLKQETAVVENVPILGLYQIPAEGGGRIVLYGDSNCLDDSHRQKDCFWLLDALLQYTSYGVTPPSLSHSGNRQRPPSGAGSVTPERMEGNHLHRYSKVLEAHLGDPKPRPLPACPRLSWAKPQPLNETAPSNLWKHQKLLSIDLDKVVLPNFRSNRPQVRPLSPGESGAWDIPGGIMPGRYNQEHHHHHH
- cleavage of synthetic peptide [2]: ^1No cleavage detected even with a 10-fold excess of enzyme.
- Km(app) [3]: 17 µM
- Vmax(app) [3]: 0.4 nmol/h
- Vmax(app)/Km(app) [3]: 0.023 h^-1L^-1
- Vmax(app)/Km(app) relative to peptides I and II [3]: 5-10-fold higher than those obtained with peptides I and II
- cleavage of synthetic peptide [3]: this change significantly improved the processing of these peptides
- cleavage of synthetic peptide [4]: ^2Cleavage detected but not attributable to SKI-1.
- Hydrolysis of SREBP-2 peptide (% of control) at 0.01 mM cystatin (cystatin): 100 % of control
- cleavage of synthetic peptide at K137↓ [5]: the PQRKVFRSLK^137↓YAESD (SEQ. ID. NO. 45) cleavage was only seen in SKI-1-containing medium
- cleavage of synthetic peptide [6]: ^1No cleavage detected even with a 10-fold excess of enzyme.
- Km(app) [7]: 109 µM
- Vmax(app) [7]: 1.1 nmol/h
- Vmax(app)/Km(app) [7]: 0.01 h^-1L^-1
- catalytic efficiency relative to peptide IV [7]: caused a 4-fold reduction in catalytic efficiency
- cleavage of synthetic peptide [7]: this change significantly improved the processing of these peptides
- difference in Vmax(app)/Km(app) between peptides IV and V [7]: 2 fold
- Km(app) [8]: 124 µM
- Vmax(app) [8]: 0.5 nmol/h
- Vmax(app)/Km(app) [8]: 0.004 h^-1L^-1
- cleavage of synthetic peptide (RP-HPLC, MALDI-TOF) [8]: The expected cleavages were confirmed and did not occur using WT-/empty vector-derived media
- Hydrolysis of SREBP-2 peptide (% of control) at 0.5 mg/ml SBTI [9]: 100 % of control
- cleavage of synthetic peptide (RP-HPLC, mass spectrometry) [10]: the only one with detectable cleavage by SKI-1-containing concentrated medium ... was peptide III
- Km(app) [11]: 169 µM
- Vmax(app) [11]: 0.4 nmol/h
- Vmax(app)/Km(app) [11]: 0.002 h^-1L^-1
- cleavage of synthetic peptide (RP-HPLC, MALDI-TOF) [11]: The expected cleavages were confirmed and did not occur using WT-/empty vector-derived media

— US7211424B1, “Mammalian Subtilisin/kexin isozyme SKI-1: a proprotein convertase with a unique cleavage specificity” (Institut de Recherches Cliniques de Montreal, priority 1999, dated 2007)
